Where a chain is given by its changes, count along the chain named. In names and notes the source's numbering stands.

One experiment has as its target KDR receptor (Homo sapiens, UniProt P35968). Description: KDR receptor binding ELISA (inhibition of biotinylated native VEGF (8-109) binding). The following applies: second figure of the cell, ratio to native VEGF (8-109). How it is done:
Receptor binding assays were performed in 96-well immunoplates (Maxisorp, Nunc-Immunoplate, Nalge Nunc International, Rochester, N.Y.). Each well was coated with 100 μl of a solution containing 8 μg/ml of a monoclonal antibody to KDR known as MAKD5 (Genentech, South San Francisco, Calif.) in 50 mM carbonate buffer at pH 9.6 and incubated at 4° C. overnight. The supernatant was discarded, the wells were washed three times in washing buffer (0.05% Tween 20 in PBS), and the plate was blocked (150 μl per well) with block buffer (0.5% BSA, 0.01% thimerosal in PBS) at room temperature for one hour. The supernatant was discarded, and the wells were washed.
Aliquots of this mixture (100 μl) were added to the precoated microtiter wells and the plate was incubated for 1 hour at room temperature. […] The wells were then incubated with 3, 3′, 5,5′-tetramethyl benzidine (0.2 gram/liter; Kirkegaard & Perry Laboratories, Gaithersburg, Md.) for about 10 minutes at room temperature. Absorbance was read at 450 nm on a Vmax plate reader (Molecular Devices, Menlo Park, Calif.).
(§1) Titration curves were fit with a four-parameter nonlinear regression curve-fitting program (KaleidaGraph, Synergy Software, Reading, Pa.).
For orientation: In an ELISA, binding on a coated surface is turned into a signal by an enzyme label.

The subject of a further experiment is Flt-1 receptor. Description: Flt-1 receptor binding ELISA (inhibition of biotinylated native VEGF binding to Flt-IgG). The conditions noted are these: second figure of the cell, ratio to native VEGF (8-109). How it is done: Receptor binding assays were performed in 96-well immunoplates (Maxisorp, Nunc-Immunoplate, Nalge Nunc International, Rochester, N.Y.). Each well was coated with 100 μl of a solution containing 2 μg/ml of rabbit F(ab′)2 to human IgG Fc (Jackson ImmunoResearch, West Grove, Pa.) in 50 mM carbonate buffer at pH 9.6 and incubated at 4° C. overnight. The supernatant was then discarded, the wells were washed three times in washing buffer (0.05% Tween 20 in PBS), and the plate was blocked (150 μl per well) with block buffer (0.5% BSA, 0.01% thimerosal in PBS) at room temperature for one hour. The supernatant was discarded, and the wells were washed.
The wells were filled with 100 μl of a solution containing Flt-IgG (a chimeric Flt-human Fc molecule) at 50 ng/ml in assay buffer (0.5% BSA, 0.05% Tween 20 in PBS). The wells were incubated at room temperature for 1 hour and then washed three times in wash buffer (0.05% Tween 20 in PBS).
Aliquots of the mixture (100 μl) were added to the precoated microtiter wells and the plate was incubated for 2 hours at room temperature. […] The wells were then incubated with 3, 3′, 5,5′-tetramethyl benzidine (0.2 g/liter, Kirkegaard & Perry Laboratories, Gaithersburg, Md.) for about 10 minutes at room temperature. Absorbance was read at 450 nm on a Vmax plate reader (Molecular Devices, Menlo Park, Calif.).
as §1

KDR receptor, sequence (P35968 20-327 limits assumed): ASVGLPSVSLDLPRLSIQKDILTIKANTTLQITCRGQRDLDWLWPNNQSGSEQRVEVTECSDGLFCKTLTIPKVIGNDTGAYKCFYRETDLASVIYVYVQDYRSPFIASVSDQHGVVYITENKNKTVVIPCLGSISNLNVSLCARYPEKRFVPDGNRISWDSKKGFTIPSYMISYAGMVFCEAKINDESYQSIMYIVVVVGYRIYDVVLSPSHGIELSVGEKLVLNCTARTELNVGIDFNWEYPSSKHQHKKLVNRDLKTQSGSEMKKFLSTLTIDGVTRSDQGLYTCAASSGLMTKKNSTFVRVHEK
Flt-1 receptor, sequence (P17948 27-327 limits assumed): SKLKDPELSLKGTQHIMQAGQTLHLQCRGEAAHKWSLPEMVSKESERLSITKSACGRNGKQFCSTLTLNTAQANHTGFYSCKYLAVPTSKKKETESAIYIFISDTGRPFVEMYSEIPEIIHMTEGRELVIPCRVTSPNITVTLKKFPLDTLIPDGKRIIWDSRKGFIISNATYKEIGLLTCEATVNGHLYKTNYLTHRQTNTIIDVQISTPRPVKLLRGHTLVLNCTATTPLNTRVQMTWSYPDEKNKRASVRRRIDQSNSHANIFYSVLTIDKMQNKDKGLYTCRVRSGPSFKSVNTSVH

B1: LK-VRB-4s: VEGF (1-109) variant, F17I/M18E/Y21F/Q22E/Y25I (protein)
chain: APMAEGGGQNHHEVVKIEDVFERSICHPIETLVDIFQEYPDEIEYIFKPSCVPLMRCGGCCNDEGLECVPTEESNITMQIMRIKPHQGQHIGEMSFLQHNKCECRPKKD
As to B1, the “Relative Binding Affinity KDR Receptor” value with KDR receptor worked out at 1 nM/1.

B2: LK-VRB-3s: VEGF (1-109) variant, F17I/M18E/Y21F/Q22K/Y25S (protein)
chain: B1 chain with E22K, I25S
For B2, the “Relative Binding Affinity KDR Receptor” value in the experiment with KDR receptor is 1 nM/1.

B3: LK-VRB-16s: VEGF (1-109) variant, Q22R/Y25S/D63S/G65M/L66R (protein)
chain: B1 chain with I17F, E18M, F21Y, E22R, I25S, D63S, G65M, L66R
As to B3, in the experiment with KDR receptor, the “Relative Binding Affinity KDR Receptor” value was found to be 0.6 nM/0.6. Further, the “Relative Binding Affinity FLT-1 Receptor” value with Flt-1 receptor was “/>1400”.

B4: LK-VRB-10s: VEGF (1-109) variant, Y25S/D63S/G65M/L66R (protein)
chain: B1 chain with I17F, E18M, F21Y, E22Q, I25S, D63S, G65M, L66R
For the molecule B4, the “Relative Binding Affinity KDR Receptor” value with KDR receptor is on record as 0.5 nM/0.5. Further, the “Relative Binding Affinity FLT-1 Receptor” value in the experiment with Flt-1 receptor is “/>2400”.

B5: LK-VRB-25s: VEGF (1-109) variant, D63S/L66R/M18E/Y21L/Q22R/Y25S (protein)
chain: B1 chain with I17F, F21L, E22R, I25S, D63S, L66R
In the case of B5, the “Relative Binding Affinity KDR Receptor” value in the experiment with KDR receptor turned out to be 4 nM/4. In addition, in the experiment on Flt-1 receptor, the “Relative Binding Affinity FLT-1 Receptor” value was “/>12000”.

B6: LK-VRB-19s: VEGF (1-109) variant, M18E/Q22R/Y25S/D63S/G65M/L66R as printed (same as 18s) (protein)
chain: B1 chain with I17F, F21Y, E22R, I25S, D63S, G65M, L66R
With B6, in the experiment with KDR receptor, the “Relative Binding Affinity KDR Receptor” value worked out at 7 nM/7. Besides, the “Relative Binding Affinity FLT-1 Receptor” value with Flt-1 receptor is listed as “/>35000”.

B7: LK-VRB-20s: VEGF (1-109) variant, Y21L/Q22R/Y25S/D63S/G65M/L66R (protein)
chain: B1 chain with I17F, E18M, F21L, E22R, I25S, D63S, G65M, L66R
B7: the “Relative Binding Affinity KDR Receptor” value in the experiment with KDR receptor turned out to be 2 nM/2. The “Relative Binding Affinity FLT-1 Receptor” value in the experiment on Flt-1 receptor is “/>10000”.

B8: LK-VRB-14s: VEGF (1-109) variant, Y21L/Q22R/D63S/G65M/L66R (protein)
chain: B1 chain with I17F, E18M, F21L, E22R, I25Y, D63S, G65M, L66R
Regarding B8, in the experiment with KDR receptor, the “Relative Binding Affinity KDR Receptor” value worked out at 0.5 nM/0.5. Also, the “Relative Binding Affinity FLT-1 Receptor” value with Flt-1 receptor was “/>2900”.

B9: LK-VRB-13s: VEGF (1-109) variant, M18E/Y25S/D63S/G65M/L66R (protein)
chain: B1 chain with I17F, F21Y, E22Q, I25S, D63S, G65M, L66R
Take B9: the “Relative Binding Affinity KDR Receptor” value with KDR receptor is recorded as 14 nM/14. In addition, the “Relative Binding Affinity FLT-1 Receptor” value in the experiment on Flt-1 receptor was “/>14000”.

B10: LK-VRB-24s: VEGF (1-109) variant, D63S/G65M/M18E/Y21L/Q22R/Y25S (protein)
chain: B1 chain with I17F, F21L, E22R, I25S, D63S, G65M
For B10, the “Relative Binding Affinity KDR Receptor” value in the experiment with KDR receptor was found to be 10 nM/10. In addition, the “Relative Binding Affinity FLT-1 Receptor” value in the experiment with Flt-1 receptor is on record as “/>18000”.

B11: LK-VRB-9s: VEGF (1-109) variant, Q22R/D63S/G65M/L66R (protein)
chain: B1 chain with I17F, E18M, F21Y, E22R, I25Y, D63S, G65M, L66R
Regarding B11, the “Relative Binding Affinity KDR Receptor” value with KDR receptor is recorded as 0.5 nM/0.5. Moreover, in the experiment with Flt-1 receptor, the “Relative Binding Affinity FLT-1 Receptor” value is reported as “/300”.

B12: LK-VRB-8s*: VEGF (1-109) variant, Y2IL/D63S/G65M/LG6R as printed (protein)
chain: B1 chain with I17F, E18M, F21L, E22Q, I25Y, D63S, G65M, L66R
With B12, the “Relative Binding Affinity KDR Receptor” value in the experiment with KDR receptor turned out to be 0.5 nM/0.5. In addition, the “Relative Binding Affinity FLT-1 Receptor” value with Flt-1 receptor is reported as “/>21000”.

B13: LK-VRB-26s: VEGF (1-109) variant, G65M/L66R/M18E/Y21L/Q22R/Y25S (protein)
chain: B1 chain with I17F, F21L, E22R, I25S, G65M, L66R
Consider B13, for which the “Relative Binding Affinity KDR Receptor” value in the experiment with KDR receptor was 23 nM/23. In addition, in the experiment with Flt-1 receptor, the “Relative Binding Affinity FLT-1 Receptor” value is reported as “/>25000”.

B14: LK-VRB-7s*: VEGF (1-109) variant, M18E/D63S/G65M/L66R (protein)
chain: B1 chain with I17F, F21Y, E22Q, I25Y, D63S, G65M, L66R
For B14, in the experiment with KDR receptor, the “Relative Binding Affinity KDR Receptor” value stood at 1 nM/1. For the same molecule, the “Relative Binding Affinity FLT-1 Receptor” value in the experiment with Flt-1 receptor was “/>15000”.

B15: LK-VRB-17s: VEGF (1-109) variant, M18E/Y21L/Q22R/D63S/G65M/L66R (protein)
chain: B1 chain with I17F, F21L, E22R, I25Y, D63S, G65M, L66R
In the case of B15, the “Relative Binding Affinity KDR Receptor” value with KDR receptor is given as 3 nM/3. The “Relative Binding Affinity FLT-1 Receptor” value with Flt-1 receptor was “/>1900”.

B16: LK-VRB-23s: VEGF (1-109) variant, L66R/M185/Y21L/Q22R/Y25S as printed (protein)
chain: B1 chain with I17F, F21L, E22R, I25S, L66R
As to B16, the “Relative Binding Affinity KDR Receptor” value in the experiment with KDR receptor was 11 nM/11. The “Relative Binding Affinity FLT-1 Receptor” value in the experiment with Flt-1 receptor is reported as “/>8500”.

B17: LK-VRB-15s: VEGF (1-109) variant, Y21L/Y25S/D63S/G65M/L66R (protein)
chain: B1 chain with I17F, E18M, F21L, E22Q, I25S, D63S, G65M, L66R
On to B17, for which the “Relative Binding Affinity KDR Receptor” value with KDR receptor amounted to 2 nM/2. In addition, in the experiment with Flt-1 receptor, the “Relative Binding Affinity FLT-1 Receptor” value is recorded as “/>21000”.

B18: LK-VRB-22s: VEGF (1-109) variant, GG5M/M18E/Y21L/Q22R/Y25S as printed (protein)
chain: B1 chain with I17F, F21L, E22R, I25S, G65M
In the case of B18, the “Relative Binding Affinity KDR Receptor” value with KDR receptor was 4 nM/4. For the same molecule, the “Relative Binding Affinity FLT-1 Receptor” value in the experiment on Flt-1 receptor was “/>30”.

B19: LK-VRB-11s: VEGF (1-109) variant, M18E/Y21L/D63S/G65M/L66R (protein)
chain: B1 chain with I17F, F21L, E22Q, I25Y, D63S, G65M, L66R
B19: the “Relative Binding Affinity KDR Receptor” value with KDR receptor is reported as 2 nM/2. Besides, the “Relative Binding Affinity FLT-1 Receptor” value in the experiment on Flt-1 receptor is reported as “/>14000”.

B20: LK-VRB-12s: VEGF (1-109) variant, M18E/Q22R/D63S/G65M/L66R (protein)
chain: B1 chain with I17F, F21Y, E22R, I25Y, D63S, G65M, L66R
Turning to B20, in the experiment with KDR receptor, the “Relative Binding Affinity KDR Receptor” value worked out at 0.4 nM/0.4. Also, in the experiment on Flt-1 receptor, the “Relative Binding Affinity FLT-1 Receptor” value was “/>5600”.

B21: LK-VRB-21s: VEGF (1-109) variant, D63S/M18E/Y21L/Q22R/Y25S (protein)
chain: B1 chain with I17F, F21L, E22R, I25S, D63S
In the case of B21, the “Relative Binding Affinity KDR Receptor” value with KDR receptor is on record as 3 nM/3. In the experiment on Flt-1 receptor, the “Relative Binding Affinity FLT-1 Receptor” value was “/>5600”.

Values taken from patent US7078382B1, “Modulation of eNOS activity and therapeutic uses thereof” (Genentech, Inc., priority 1999, dated 2006).
